Laboratory results: the supplement of paper PMC12455559

Assay: purified protein yield per well (BCA); higher = higher soluble expression
Protocol: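 Candidate PET hydrolases were expressed in E. coli C41(DE3) in 2 mL autoinduction cultures in 24-deep-well plates, Ni-bead purified and released by SUMO protease cleavage on an OT-2 robot. Yield per well was measured by BCA; values below 25 ug (0.1 mg/mL) are below the detection threshold. Melting temperature was measured by differential scanning fluorimetry with Sypro Orange, ramping from 25 C at 0.3 C/step.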

AAPVHHAVTRPVAAHHPVTRPVAGHAPPPSTVDQIVVPATADARFGGGTIFAPHGAGQKVLGSVIVTPGFHGRKSDMAVYGTELAAEGFVVFTIDTRERADLPAQRATEMLAAADYLTGRSAVKGEVSPDRVALLGYSMGGGGTLEAAQERPSIKAALTLMPYDYPPAGDPKAVHPAYPELTVPTLIITGQKDATAIPAKFGKPAYDSIPAGTPKQYLQLTGLGHAAGMGKPTATIRAAITAFLERYLDGDTAYAKDICPAPEVGGPISASTSSCPAG [ESM183]
purified protein yield per well: < 25 µg

CGDRDAGDPAPTESSLTAPLGPEKYRTEVVPRAYVEAFGGGTIYYPAGRPPGERLGAVTIVPGSRGYQSGMAWYGPLLASRGFIVFTIDTLHLKDQPAKRSLELEAALTYLATRSAVASHVDAERLAVMGHSLGGGGTLDLAATRPNLKAAIPLMPYDKAKDFSNVRVPTLVVAAQHDKIAPVGKHAEVFYRSIPASQPKAYLEIAGATHSFPKRRDATLAKYVIAWLKRYVDGDKRYDRFLCPGPQNDPHVARYASDCTPR [DP095]
purified protein yield per well: < 25 µg

AAPVHHAVTRPVAAHHPVTRPVPRPVVAHAPQPPAVDQIVVPATADARFGGGTIFAPRGAGQKVLGSVVVTPGFHGRKSDMAVYGTELAAEGFVVFTIDTRDRADLPDQRATEMLAAADYLTGRSAVKGEVSPDRVALLGYSMGGGGTLQAAQERPSIKAALTLMPYDYPPAGDPKAVHPAYPELTVPTLIITGQKDATAIPAKFGKPAYDSIPAGTPKQYLQLTGLGHAAGMGKPTATIRAAITAFLERYLDGDTAYAKDICPAPKVGGPISASTSSCGTS [ESM119]
purified protein yield per well: < 25 µg

TPEAPAARAAENPYERGPDPTESSIEAPRGSYSVSERSVSSLSVRGFGGGTIYYPTSTADGTFGAVAISPGFTARQSSMAWYGERLASQGFVVFTIDTNTTMDQPASRGDQLLAALDYLTDDSAVRSRIDSNRLAVMGHSMGGGGSLEAAKDRPSLKAAIPLTPWNTDKSWPEVRVPTFIVGADGDSIASVRSHAEPFYESLPSSTDRAYMELRNATHFAPNSADTEIAKYSISWLKRFVDEDTRYEQFLCPIPSSDLQIAEFRGNCPH [TEP075]
purified protein yield per well: < 25 µg

MIYYPTDTSQGTFGAIAISPGYTALFSVELAWMGPRLASQGFVVIGIETNDRNDFDTARGTQLLAALDYLTGQSSVRSRVDPNRLAVAGHSMGGGGAFSAALRRPALKAAVGFTPFSPSQNLTNMQVPALLYSGQYDTVTTPSSVSNLYNGLPSTTEGAYIEAAGLDHSFPTRPNTLLMRTMIPWVKIFLDNDLRYTQFLCPLMDSSGVLQYRNTCPLVPPGLPSPSPTTAPPTTAPPTTAPPTTAPPTTAPPTTAPPTTAPPTTAPPSGACTATYQTIGSWPGGFQGEVTVRAGNSAINGWTVGWSLGSGQSITQIWNGTLSTSGSSVSVRNVSYNGSLPAAGTATFGFLGSGSPSTPSTVTCTSP [ESM001]
purified protein yield per well: < 25 µg

SPVLALVAGPALANPYQRGPDPTDASITAETGPFKTASVVVPSNTDPGFAGGTIYYPTDTSQGTFAPIVVTPGFVSPQWAISWYGPRLASQGFVVMTIDTLGLFDVVDQRGKEMLAALDYLTNRSAVKDRIDPTRPGLMGHSMGGGGVIRAAAERPGIKAVVPLAPWDPNSSYAWNVKADTLVVGGESDMIAPVAANAEPIYKDLRSAPEKAYLELSGADHVFAFNLPNTTIAKYAIAWMKRFLDDDVRYDRFLCPAPAPGGAIKQYQDTCPNG [TEP158]
purified protein yield per well: < 25 µg

LTLDDLKKDGPYAISAQTIPASGFGKGTVYSPNTPGKYALVAVCPGFVSAESSITEISKRLATHGFVVVTIGTKTLLDFPSSRASQLLAALKAASAVTTGPAAGKIDVTRQVVAGWSMGGGGTLEAAAATPGLKAAVAYAPWNLSSSKYKSITVPSAIIGGTADSVAPVSSHSQPFYNAIPATTPKLLGVIQGADHFFPNKAAEPASYTNIAWVKRFADGDTQYGVFLRGQDAAWASFVSTGPF [ESM117]
purified protein yield per well: < 25 µg

VENGPVPTLADLKKDGPYAVTSQKVAGSGFGSGTIYSPNTAGKYALVAVCPGFVSAESSITDISRRLATHGFVVITIGTKTLLDFPSSRATQLLAALKTATTTTTGPVVGKIDTARQVVSGWSMGGGGTLEAAGITPGLKAAVAYAPWHSTTTKIKTSTVPSIIFGATGDVVAPVASHSQKFYDVLPTSTKKQLAVLQGSNHFFPNSAIEPVSYSNISWVKRFADGDTRYSQFLSVADPAWSKVQSNGPF [ESM166]
purified protein yield per well: < 25 µg

AAPPVPQVAASPYERGPAPSEESVTAAEGPFEFETIDVPAGSGDGFNQGTIYAPTDRSQGTFGAIAVSPGFVSPEALVSWYGPRLASQGFVVMTIETNTVLDLPAMRGDQLLAALDYLTGAASPVADRVDPDRLAVMGHSMGGGGTLEAASRRTDLRAAVPLAPWNLTSDWSAVRTPTMILGAQNDFIAANGLHSEPFYEGLTSAPEKAYAELENTGHMSFNTPNDTIAKYTIAWMKRYVDDDARYERFLCPAPSDDPALIEYRDTCPGG [TEP149]
purified protein yield per well: < 25 µg

NNPAPTPTPTPTPGTPSAYQRGPAPSVSFLQASRGDLSVRTSRVSSFTSGFGGGTIHYPTGTTGTMAAIVVIPGYVSAESSIEWWGPKLASYGFVVMTIDTNSGFDQPPSRARQINSALDYLVSQNSSSRSPVRGMIDTNRLGVVGWSMGGGGTLRVAEEGRIKAAIPLAPWDTTNFRDNYTPTLIFACQSDVIAPVNQHASPFYNQIPSSTDKAFVELSGGSHYCGNGGGVYNNVLGRLGVSWMKRHLDQDTRYDQFLCGPNHESDSRISEYRGNCSN [ESM126]
purified protein yield per well: < 25 µg

QAAANPYERGPAPSVSSIEAARGSYAVSQTSVSSLGVTGFGGGTVYYPTSTADGTFGAVVISPGFTATQSSISWLGPRLASQGFVVFTIDTNSTLDQPDSRGRQLLAALDYLTERSSVRTRIDATRLGVMGHSMGGGGTLEAAKSRPSLQAAIPLTGWNTDKSWPELRTPTLVIGADGDTVAPVATHSEPFYTSLPSSLDKAYLELNGATHFTPNSSNTTIAKYSISWLKRFIDDDTRYEQFLCPLPRPSVTIEEYRGNCPHS [TEP116]
purified protein yield per well: < 25 µg

VENGPAPTLAALKADGPYAITSQAVPGNGFGAGTVYVPTAAGKYALVAICPGFVSAQSTMTDMAKRLATHGFVVVAISTNTLLDFPPSRASQLLAALKATASLTSGPVVGKIDTSRQAVSGWSMGGGGTLEAAGSTPGLMAAVAFAPWDTSTTKMKVDKVPAAIIGGSSDVIAPVSSHSQPFYNAIPSTTPKLLAVISGASHFFPTTASEPASYTNISWMKRFADGDTRYSQFLNGNDAALSSFTSNGPF [ESM092]
purified protein yield per well: < 25 µg

VEIGPAPTSTLLNGDGPFAVSTDSVSSLVTGFGGGTIYYPTTSGQYAAVAVCPGFTGTSSSISWFARRLATHGFVTIAMNTNTIYDYPSSRATQLAAALRYLLNSSSSTIRARIRTADRAVAGHSMGGGGTLIASANDSTLRAGIPLTPWNTYTSFSSVRVPQMIFGADGDTIAPYASHARPFYNSLSYPEKAYALLNGATHFTPNSTDQRIGRYGVAFAKRFVDGDTRYTPFLCGAEHTAYATSSRFDTYLSTCPY [TEP032]
purified protein yield per well: < 25 µg

ADNPYERGPDPTEQLIESARGPFATAQTRVSSLSVTGFGGGVIYYPTDTSQGTFGAVAISPGFTADWTSLDWLGPRLASHGFVVIGIDTITRLDQPDSRGRQLLAALDYLTQRSSVRSRVDASRLAVAGHSMGGGGSLEAAKSRTSLKAAIPLAPWNLDKTWPEVVTPTMIFGGELDTVAPVSTHAIPFYNSLTNAREKAYLEIDNGSHFFPNVSNTLVAKYMISWLKRYVDNDTRYEQFLCPVPDDRGLSDSRGTCPGS [TEP135]
purified protein yield per well: < 25 µg

APAESAQRAASPYERGPAPTEQSVSAKLGPFAFTQVPAPANASAGFNQGTVYYPNDTGQGTFGAIAITPGFLSPESSIGWLGPRLASNGFVVITLTTNSPVDFPGGRAAQMRAALDWVTKQAPDAIRSRIDPTRLGVMGWSMGGGGTLEVANTHPNIQAAVPLAPWHLTNNWSTVKVPTMIIGAQNDLIAGVGAHSEPFYESLKSAPERAYAEIKGGNHFSVTVDTPLVGKLATSWMKRFIDDDTRYDQFLCPKPTDSTLSEYRDSCPNG [DP035]
purified protein yield per well: < 25 µg

RPAESGASAAAVQATGTQRGPDPTIAMIEATRGPFATAQVSAPSGNGFGGGVVYYPTDTTQGTWGALAIVPGYSALCSTEEAWMGPWLSSFGFVVICTETNTRTDSDSQRAAELQAALTWLTTQSPVKSEVDPARLSVLGHSAGGAGAMEEAEQHPELRAAIGLAPGFPGQGLTLATDTVPTLIVGGQNDGTVTPSYLSNLYGTLPASTQSDFAQIAGADHVYYTHANNIEMKLIIPWLKVFVDSDTRYTQFLCPTLPDPSTISAYQPKCPYVPSGGSTPPPPTSVAIVGTGSGRCVTVPGGTQTGGTQVQLADCAGGTSQQWTNTATGQLQVFGTSCLDANARGTSPGTKVIIWSCNGQQNQQWTVHADGSITGVQSGLCLDATGAGTANGTPLELWTCNGGSNQKWTLQ [TEP132]
purified protein yield per well: < 25 µg

APAPATAAAADNPYERGPDPTEDSIEAARGPYDVAETSVSSWVVSGFGGGTVYYPRETDDGTFGAVAVAPGYTASQSSMAWLGPRLASQGFVVFTIDTLTRLDQPASRGRQLLAALDYLTERSAVRNRIDASRLGVMGHSMGGGGTLEAAADRPSLQAAVPLAPWNLDKTWGELRVPTMIIGADGDSIAPVSSHSEPFYESLPGGLDRAYLELNNADHFTPNLPDTTLAKYSLSWLKRFIDNDTRYEQFLCPLPRPGWYIEEYRGTCPHLS [TEP124]
purified protein yield per well: < 25 µg

QIGPDPTSSSLNATSGPFAVSTSNVVLARGFGGGTIYYPTTTGRYGVVAISPGFTATESSVAWLGRRLATHGLVVITINTNSTLDQPASRATQLMAALNHVVNSASSTVRSRVDSTRLAVAGHSMGGGGALIAAENNPTLKAALPLTPWNLSSSFTQVQVPTLIVGADGDSVASVAVHARPFYASLPATTFKAYAELNGASHFTPNSTNTPIGRYGTAWMKRFVDADSRYSPFLCGAPHEAYATALVFDRYNQNCPY [DP027]
purified protein yield per well: < 25 µg

SQGTFGAAVVSPGFLSPQVAWAGPRIASHGFVVLTIDTNTIFDSPTSRSQQLQAALSYLVSPASGVANRIDPSRLAAMGHSMGGGGTLELAARLPTLQAAVPLQPWDIAQSFSGIRVPTMIIGAQADFIAPVASHSEPFYQQVPATTEKAYLEVAGADHLIGLLGNPTQARYSVAWLKRYVDDDTRYDQFICPPPSGPTISEYRNTCPP [TEP153]
purified protein yield per well: < 25 µg

YNPPPPPPDPGPGPGQPSDGFERGPNPSVSFLEASRGPFSIRETRVSGTVRGFGGGTIYYPTGTSGTMGAIVVIPGFVSPESSIAWWGPKLASHGFVVMTIATNSGYDQPRSRATQINSALDYLIDQNSDSRSPVRNMIDTDRLGVMGWSMGGGGTLRVASQNRLKAAVGLAPYDTISFRNVDAPTMILACESDTIAPVRNHASPFYNEIPFNTDKAFFEINGGSHTCANGGNRFNETLSRLGVSWMKR [ESM179]
purified protein yield per well: < 25 µg
